Experimental data from US20090075291A1, “PEPTIDE-BASED REGULATION OF GAP JUNCTIONS” (The Research Foundation of State University of New York, priority 2006, published 2009).

What was measured:
Cx43CT = target: T1, Cx43CT (Rattus norvegicus, UniProt P08050); assay: Non-biased 12-mer phage display screening against Cx43CT; type: binding; conditions: 156 phage plaques sequenced after three rounds; pH 6.5
T1 construct: GST (N, cleaved yes); made in house; host or cells: E. coli BL-21
Method: A “library” of bacteriophage, displaying ˜[…] of 2.7×10^9 random 12-mer peptides (Ph.D.-12™ Phage display peptide library kit; New England BioLabs Inc.) was utilized. Wells in 24-well plates were coated with 15 μg of recombinant CT and blocked with 5 mg/ml BSA. After removing the unbound viruses by washing with Tris buffered saline containing 0.5% tween-20 (TBS-T), low affinity binders were eluted with a solution of TBS-containing Cx43CT at a concentration of 100 μg/ml. High affinity binders were recovered by overlaying the well with a culture of E. coli, to allow the tightly bound phage to infect the bacteria. This culture was amplified and the virus was precipitated with PEG. The amplified product was used for the subsequent round of panning. All steps were conducted at pH 6.5 unless otherwise indicated.
After three rounds of selection and amplification, the phage recovered from the last round of binding were grown on a lawn of E. coli for plaque purification. Each plaque, representing a single clone, was picked and amplified. The phage were isolated and analyzed by DNA sequencing.
The library was presented to Cx43CT. After three rounds of selection and amplification, DNA of 156 phage plaques was purified and sequenced. Of the estimated 2.7×10^9 different sequences in the library, 48 unique sequences were recovered. […]

[1] = system: junctional conductance (Gj) of cell pairs; assay: Heptanol-induced uncoupling of cell pairs, junctional conductance time course; type: cell-based; conditions: compared with cell pairs without peptide
Method: Cells were treated with heptanol to reduce coupling and with NL.RXPE.

cardiac Cx43 = target: T2, cardiac Cx43 (Rattus norvegicus, UniProt P08050); assay: GST pulldown of Cx43 from rat heart lysate, western blot; type: binding; conditions: GST fusion on glutathione beads, western blot for Cx43
T2 construct: from tissue; host or cells: rat heart lysate
Excerpt: cDNA coding for […] (SEQ ID NO:11) (“NL.RXPE”) was cloned in-frame with the cDNA for glutathione S-transferase (“GST”). The resulting fusion protein, GST-NL.RXPE was produced in bacteria, and purified by conventional methods. GST-NL.RXPE was bound to glutathione beads and exposed to a rat heart lysate. After washing of the supernatant, the pellets were heated to separate the proteins from the beads. Two additional proteins were produced in parallel, and used as control: GST alone (not fused to any peptide) and GST fused to RXPE. After exposure to heart lysate, the resulting complexes that were “fished out” by the bait proteins were run on SDS-PAGE, transferred to a nitrocellulose membrane, and probed with an antibody for Cx43. […] It is expected that other peptides of formula A-An interact with Cx43, and may be used in the methods of the present invention.

T2 sequence (P08050 whole entry, the tested form may be a part): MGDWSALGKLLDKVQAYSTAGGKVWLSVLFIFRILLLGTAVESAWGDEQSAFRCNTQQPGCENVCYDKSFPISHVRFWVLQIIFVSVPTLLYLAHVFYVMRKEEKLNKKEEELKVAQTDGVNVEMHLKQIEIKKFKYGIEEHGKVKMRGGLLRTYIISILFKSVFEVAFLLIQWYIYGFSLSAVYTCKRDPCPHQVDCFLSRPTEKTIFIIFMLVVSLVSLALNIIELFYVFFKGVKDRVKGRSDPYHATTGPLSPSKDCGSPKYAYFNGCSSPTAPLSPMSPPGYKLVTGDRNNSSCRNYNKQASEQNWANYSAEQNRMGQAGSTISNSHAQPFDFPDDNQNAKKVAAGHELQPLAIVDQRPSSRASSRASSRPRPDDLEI
T1 sequence (P08050 255-382): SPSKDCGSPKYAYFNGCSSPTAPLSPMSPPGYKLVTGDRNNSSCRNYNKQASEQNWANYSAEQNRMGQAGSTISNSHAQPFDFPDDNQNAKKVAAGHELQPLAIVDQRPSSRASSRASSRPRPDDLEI

Sequence	Number of phage plaques from which the sequence was recovered (Cx43CT) [plaques]	Rate of heptanol-induced uncoupling (normalized Gj) [1]	Recovery of Cx43 with GST-fused peptide as bait (cardiac Cx43)
PRPTMGNLPDVL (Peptide sequence from phage library)	45		
SDDLRSPQLHNHMVRRKPRNPR (RXP-containing peptide) [NL.RXPE]		uncoupled at a much slower rate	Cx43 was also recovered
